Measurements from paper PMC6330322.

How the values were obtained:
[1] = biological target: NrnC from Agrobacterium tumefaciens (Agrobacterium tumefaciens str. C58); test: SEC; Superdex 200, 25 mM Tris-HCl pH 8.0, 100 mM NaCl; calibrated with Ec_RND, Tle1, conalbumin and aldolase; self-association, octamer
[2] = biological target: NrnC from Agrobacterium tumefaciens (Agrobacterium tumefaciens str. C58); test: AUC; sedimentation velocity, 1 mg/mL At_NrnC in 25 mM Tris-HCl pH 8.0, 100 mM NaCl, without or with 5 mM MnCl2, 60,000 rpm, 20°C, Sedfit; self-association, octamer
[3] = biological target: NrnC from Agrobacterium tumefaciens (Agrobacterium tumefaciens str. C58); test: crystal structure; apo and Mn2+-soaked crystals, space group I422, two protomers in the asymmetric unit; octamer from crystal packing, interfaces analysed with PISA

Measured: stoichiometry N

NrnC from Agrobacterium tumefaciens (enzyme)
8: all assays above
